The text below walks through data of patent US8936925B2, “Reconstitution of 5-enolpyruvylshikimate-3-phosphate synthase activity by fragment complementation” (priority 2004, dated 2015).

B1: C246: E. coli EPSPS C-terminal fragment, residue 246 to C-terminus (protein, UniProt P0A6D3 246-427, looked up, fragment)
chain: ASYFLAAAAIKGGTVKVTGIGRNSMQGDIRFADVLEKMGATICWGDDYISCTRGELNAIDMDMNHIPDAAMTIATAALFAKGTTTLRNIYNWRVKETDRLFAMATELRKVGAEVEEGHDYIRITPPEKLNFAEIATYNDHRMAMCFSLVALSDTPVTILDPKCTAKTFPDYFEQLARISQAA
B2: C228: E. coli EPSPS C-terminal fragment, residue 228 to C-terminus (protein, UniProt P0A6D3 228-427, looked up, fragment)
chain: GQSYQSPGTYLVEGDASSASYFLAAAAIKGGTVKVTGIGRNSMQGDIRFADVLEKMGATICWGDDYISCTRGELNAIDMDMNHIPDAAMTIATAALFAKGTTTLRNIYNWRVKETDRLFAMATELRKVGAEVEEGHDYIRITPPEKLNFAEIATYNDHRMAMCFSLVALSDTPVTILDPKCTAKTFPDYFEQLARISQAA
B3: C241: E. coli EPSPS C-terminal fragment, residue 241 to C-terminus (protein, UniProt P0A6D3 241-427, looked up, fragment)
chain: GDASSASYFLAAAAIKGGTVKVTGIGRNSMQGDIRFADVLEKMGATICWGDDYISCTRGELNAIDMDMNHIPDAAMTIATAALFAKGTTTLRNIYNWRVKETDRLFAMATELRKVGAEVEEGHDYIRITPPEKLNFAEIATYNDHRMAMCFSLVALSDTPVTILDPKCTAKTFPDYFEQLARISQAA
B4: C235: E. coli EPSPS C-terminal fragment, residue 235 to C-terminus (protein, UniProt P0A6D3 235-427, looked up, fragment)
chain: GTYLVEGDASSASYFLAAAAIKGGTVKVTGIGRNSMQGDIRFADVLEKMGATICWGDDYISCTRGELNAIDMDMNHIPDAAMTIATAALFAKGTTTLRNIYNWRVKETDRLFAMATELRKVGAEVEEGHDYIRITPPEKLNFAEIATYNDHRMAMCFSLVALSDTPVTILDPKCTAKTFPDYFEQLARISQAA
B5: C225: E. coli EPSPS C-terminal fragment, residue 225 to C-terminus (protein, UniProt P0A6D3 225-427, looked up, fragment)
chain: VKGGQSYQSPGTYLVEGDASSASYFLAAAAIKGGTVKVTGIGRNSMQGDIRFADVLEKMGATICWGDDYISCTRGELNAIDMDMNHIPDAAMTIATAALFAKGTTTLRNIYNWRVKETDRLFAMATELRKVGAEVEEGHDYIRITPPEKLNFAEIATYNDHRMAMCFSLVALSDTPVTILDPKCTAKTFPDYFEQLARISQAA
B6: C239: E. coli EPSPS C-terminal fragment, residue 239 to C-terminus (protein, UniProt P0A6D3 239-427, looked up, fragment)
chain: VEGDASSASYFLAAAAIKGGTVKVTGIGRNSMQGDIRFADVLEKMGATICWGDDYISCTRGELNAIDMDMNHIPDAAMTIATAALFAKGTTTLRNIYNWRVKETDRLFAMATELRKVGAEVEEGHDYIRITPPEKLNFAEIATYNDHRMAMCFSLVALSDTPVTILDPKCTAKTFPDYFEQLARISQAA
B7: N234: E. coli EPSPS N-terminal fragment, N-terminus to residue 234 (protein, UniProt P0A6D3 1-234, looked up, fragment)
chain: MESLTLQPIARVDGTINLPGSKSVSNRALLLAALAHGKTVLTNLLDSDDVRHMLNALTALGVSYTLSADRTRCEIIGNGGPLHAEGALELFLGNAGTAMRPLAAALCLGSNDIVLTGEPRMKERPIGHLVDALRLGGAKITYLEQENYPPLRLQGGFTGGNVDVDGSVSSQFLTALLMTAPLAPEDTVIRIKGDLVSKPYIDITLNLMKTFGVEIENQHYQQFVVKGGQSYQSP
B8: N245: E. coli EPSPS N-terminal fragment, N-terminus to residue 245 (protein, UniProt P0A6D3 1-245, looked up, fragment)
chain: MESLTLQPIARVDGTINLPGSKSVSNRALLLAALAHGKTVLTNLLDSDDVRHMLNALTALGVSYTLSADRTRCEIIGNGGPLHAEGALELFLGNAGTAMRPLAAALCLGSNDIVLTGEPRMKERPIGHLVDALRLGGAKITYLEQENYPPLRLQGGFTGGNVDVDGSVSSQFLTALLMTAPLAPEDTVIRIKGDLVSKPYIDITLNLMKTFGVEIENQHYQQFVVKGGQSYQSPGTYLVEGDASS
B9: N224: E. coli EPSPS N-terminal fragment, N-terminus to residue 224 (protein, UniProt P0A6D3 1-224, looked up, fragment)
chain: MESLTLQPIARVDGTINLPGSKSVSNRALLLAALAHGKTVLTNLLDSDDVRHMLNALTALGVSYTLSADRTRCEIIGNGGPLHAEGALELFLGNAGTAMRPLAAALCLGSNDIVLTGEPRMKERPIGHLVDALRLGGAKITYLEQENYPPLRLQGGFTGGNVDVDGSVSSQFLTALLMTAPLAPEDTVIRIKGDLVSKPYIDITLNLMKTFGVEIENQHYQQFV
B10: N227: E. coli EPSPS N-terminal fragment, N-terminus to residue 227 (protein, UniProt P0A6D3 1-227, looked up, fragment)
chain: MESLTLQPIARVDGTINLPGSKSVSNRALLLAALAHGKTVLTNLLDSDDVRHMLNALTALGVSYTLSADRTRCEIIGNGGPLHAEGALELFLGNAGTAMRPLAAALCLGSNDIVLTGEPRMKERPIGHLVDALRLGGAKITYLEQENYPPLRLQGGFTGGNVDVDGSVSSQFLTALLMTAPLAPEDTVIRIKGDLVSKPYIDITLNLMKTFGVEIENQHYQQFVVKG
B11: N238: E. coli EPSPS N-terminal fragment, N-terminus to residue 238 (protein, UniProt P0A6D3 1-238, looked up, fragment)
chain: MESLTLQPIARVDGTINLPGSKSVSNRALLLAALAHGKTVLTNLLDSDDVRHMLNALTALGVSYTLSADRTRCEIIGNGGPLHAEGALELFLGNAGTAMRPLAAALCLGSNDIVLTGEPRMKERPIGHLVDALRLGGAKITYLEQENYPPLRLQGGFTGGNVDVDGSVSSQFLTALLMTAPLAPEDTVIRIKGDLVSKPYIDITLNLMKTFGVEIENQHYQQFVVKGGQSYQSPGTYL
B12: N259: E. coli EPSPS N-terminal fragment, N-terminus to residue 259 (protein, UniProt P0A6D3 1-259, looked up, fragment)
chain: MESLTLQPIARVDGTINLPGSKSVSNRALLLAALAHGKTVLTNLLDSDDVRHMLNALTALGVSYTLSADRTRCEIIGNGGPLHAEGALELFLGNAGTAMRPLAAALCLGSNDIVLTGEPRMKERPIGHLVDALRLGGAKITYLEQENYPPLRLQGGFTGGNVDVDGSVSSQFLTALLMTAPLAPEDTVIRIKGDLVSKPYIDITLNLMKTFGVEIENQHYQQFVVKGGQSYQSPGTYLVEGDASSASYFLAAAAIKGGT
B13: N240: E. coli EPSPS N-terminal fragment, N-terminus to residue 240 (protein, UniProt P0A6D3 1-240, looked up, fragment)
chain: MESLTLQPIARVDGTINLPGSKSVSNRALLLAALAHGKTVLTNLLDSDDVRHMLNALTALGVSYTLSADRTRCEIIGNGGPLHAEGALELFLGNAGTAMRPLAAALCLGSNDIVLTGEPRMKERPIGHLVDALRLGGAKITYLEQENYPPLRLQGGFTGGNVDVDGSVSSQFLTALLMTAPLAPEDTVIRIKGDLVSKPYIDITLNLMKTFGVEIENQHYQQFVVKGGQSYQSPGTYLVE

The first assay relates to aroA gene-mutant E. coli strain AB2829. Put plainly: In vivo complementation: growth on solid M63 restrictive medium. Type of assay: cell-based. More on the design: key: −: failed to grow; +: able to grow. The settings on record: C-terminal fragment alone. The source says:
The pKU2100 plasmid constructed as described above and corresponding pACYC1184 plasmid were introduced separately or together into the strain AB2829 deficient in E. coli aroA gene. Then, the strain was streaked on solid M63 restrictive medium and cultured overnight to determine the growth.
In order to test if EPSPS achieves fragment complementation after in vivo expression, genes encoding EPSPS N-terminal peptides were constructed into pACYC184, and genes encoding EPSPS C-terminal peptides were constructed into pBR322 (see the section Materials and Methods for the detailed construction method). Afterwards, these plasmids were introduced into aroA gene-mutant E. coli strain AB2829. EPSPS activity of the protein fragments encoded by these genes was determined by the growth of the strains on M63 restrictive medium.
The pACYC184 and pBR322 plasmids are able to be expressed in the same bacterial cell since they have replicons p15A and ColE1 respectively. In this regard, a pACYC184 plasmid was co-introduced into aroA gene-mutant E. coli strain AB2829 together with a corresponding pKU2100 plasmid, wherein the N-terminal peptide encoded by the pACYC184 plasmid and C-terminal peptide encoded by the pKU2100 plasmid are the two fragments divided at the same site from EPSPS. The resulting strains are streaked on M63 restrictive medium, and cultured at 37° C.
The pBR322 plasmids constructed in section 3.5 a and their relevant pACYC1184 plasmids constructed in section 3.5 b were introduced respectively or together into E. coli strain AB2829 deficient in aroA gene. Then the strains were streaked on solid M63 restrictive medium and cultured overnight to test the growth.
For B1, the “complementation condition, C-terminal” value is listed as “−”.
For the molecule B2, the “complementation condition, C-terminal” value is listed as “−”.
With B3, the “complementation condition, C-terminal” value is recorded as “−”.
B4: the “complementation condition, C-terminal” value is listed as “−”.
Regarding B5, the “complementation condition, C-terminal” value is recorded as “−”.
Consider B6, for which the “complementation condition, C-terminal” value is on record as “−”.

Still in this assay, the particulars now being: N-terminal fragment alone.
Take B7: the “complementation condition, N-terminal” value was “−”.
On the same count and under the same terms, in the case of B8 it was “−”.
Take B9: the “complementation condition, N-terminal” value was “−”.
As to B10, the “complementation condition, N-terminal” value is “−”.
As to B11, the “complementation condition, N-terminal” value is reported as “−”.
B12: the “complementation condition, N-terminal” value was “−”.
With B13, the “complementation condition, N-terminal” value is “−”.
